Results reported in patent US20240279345A1, “ALPHA 5 BETA 1 INTEGRIN BINDING AGENTS AND USES THEREOF” (PASITHEA THERAPEUTICS CORP., priority 2021, published 2024).
Where a chain is given by its changes, count along the chain named.

B1: A-15B08 (antibody, V domains shown)
VH: QVQLKESGPGLVAPSQSLSITCTISGFSLTSYGVHWVRQPPGKGLEWLVVIWSDGSTTYNSTLKSRLSISKDNSKSQVFFKMNSLQTDDTAMYYCARHYDYDGDWFAYWGQGTLVTVSA
VL: QIVLTQSPAIMSASLGERVTMTCTASSRVSSNSLHWYQQKPGSSPKLWIYSTSNLASGVPARFSGSGSGTSYSLTISSMEAEDAATYYCHQYLRSPPTFGGGTKLEIK
notes: mouse hybridoma antibody; also called A-15B08 (hybridoma)
B2: A2-5D10: anti-α5β1 antibody, VH SEQ ID NO:51, VL SEQ ID NO:52 (antibody, V domains shown)
VH: B1 VH with F80L
VL: B1 VL with V3L, R28S, N32R, S33C, S64R, L93Y
modifications: A2-5D10 VH Sequence; A2-5D10 VL Sequence
B3: A-3A08: hybridoma clone positive on K562 cells (antibody, V domains shown)
VH: QVQLKESGPGLVAPSQSLSITCTISGFSLTTYGVHWVRQPPGKGLEWLVVIWSDGSTTYNSALKSRLNITKDNSKSQVFLKMNSLQTDDTAMYYCVRHGGLLRRDAMDYWGQGTSVTVSS
VL: B1 VL with R28S, L34F, I49L
B4: C-14D12 (antibody, V domains shown)
VH: QVQLKESGPDLVAPSQSLSITCTVSGFSLTDYGVHWVRQPPGKGLEWLVVIWSDGSTTYNSALKSRLSITKDTSKRQVFLKMNSLQTDDTAMYYCARHAPSFIRYGSRYDALDYWGQGTSVTVSS
VL: B1 VL with M21L, R28S, S30T, N32S, S33F, L93H
notes: mouse hybridoma antibody; also called C-14D12 (hybridoma)
B5: A2-3B06 (antibody, V domains shown)
VH: B3 VH
VL: B1 VL with R28S, L34F, I49L
notes: mouse hybridoma antibody

Tests used:
[1] = target: T1, purified recombinant human α5β1 integrin heterodimer, 6×His tagged (rh-α5β1); Acro Biosystems, cat. no. … (human, UniProt P08648 42-995; P05556 21-728); assay: BLI (Octet), supernatant mAb on anti-mouse IgG Fc sensor, 20 nM rh-α5β1
T1 construct: bought recombinant heterodimer; also called rh-α5β1-6×His tagged protein; His-tagged-α5β1
T1 sequence (P08648 42-995 limits assumed, form in doubt, chain 1 of 2): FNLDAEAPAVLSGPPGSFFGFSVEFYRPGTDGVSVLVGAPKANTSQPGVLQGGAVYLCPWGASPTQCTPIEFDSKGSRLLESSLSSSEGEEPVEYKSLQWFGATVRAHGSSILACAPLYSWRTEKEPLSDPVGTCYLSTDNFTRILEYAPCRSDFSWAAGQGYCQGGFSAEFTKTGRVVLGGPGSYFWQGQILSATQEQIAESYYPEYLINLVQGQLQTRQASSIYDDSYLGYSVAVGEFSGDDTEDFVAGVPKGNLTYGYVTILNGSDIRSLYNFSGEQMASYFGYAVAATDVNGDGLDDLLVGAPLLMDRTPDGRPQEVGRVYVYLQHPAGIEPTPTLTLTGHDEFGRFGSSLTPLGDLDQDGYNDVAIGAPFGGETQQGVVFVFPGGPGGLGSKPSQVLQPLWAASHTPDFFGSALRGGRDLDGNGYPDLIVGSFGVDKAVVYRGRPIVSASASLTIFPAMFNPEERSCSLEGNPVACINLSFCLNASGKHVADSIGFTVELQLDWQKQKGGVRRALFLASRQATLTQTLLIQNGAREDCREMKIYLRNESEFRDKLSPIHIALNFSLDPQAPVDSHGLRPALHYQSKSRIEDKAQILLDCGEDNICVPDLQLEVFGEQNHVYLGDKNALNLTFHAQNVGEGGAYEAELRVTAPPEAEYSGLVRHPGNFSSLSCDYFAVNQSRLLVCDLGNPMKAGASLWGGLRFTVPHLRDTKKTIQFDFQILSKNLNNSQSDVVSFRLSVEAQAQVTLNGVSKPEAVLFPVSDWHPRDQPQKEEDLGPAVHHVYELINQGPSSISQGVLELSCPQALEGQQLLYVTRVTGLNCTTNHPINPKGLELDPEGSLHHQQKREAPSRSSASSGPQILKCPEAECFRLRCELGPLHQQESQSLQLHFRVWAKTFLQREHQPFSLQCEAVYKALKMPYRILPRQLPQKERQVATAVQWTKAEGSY
T1 sequence (P05556 21-728 limits assumed, form in doubt, chain 2 of 2): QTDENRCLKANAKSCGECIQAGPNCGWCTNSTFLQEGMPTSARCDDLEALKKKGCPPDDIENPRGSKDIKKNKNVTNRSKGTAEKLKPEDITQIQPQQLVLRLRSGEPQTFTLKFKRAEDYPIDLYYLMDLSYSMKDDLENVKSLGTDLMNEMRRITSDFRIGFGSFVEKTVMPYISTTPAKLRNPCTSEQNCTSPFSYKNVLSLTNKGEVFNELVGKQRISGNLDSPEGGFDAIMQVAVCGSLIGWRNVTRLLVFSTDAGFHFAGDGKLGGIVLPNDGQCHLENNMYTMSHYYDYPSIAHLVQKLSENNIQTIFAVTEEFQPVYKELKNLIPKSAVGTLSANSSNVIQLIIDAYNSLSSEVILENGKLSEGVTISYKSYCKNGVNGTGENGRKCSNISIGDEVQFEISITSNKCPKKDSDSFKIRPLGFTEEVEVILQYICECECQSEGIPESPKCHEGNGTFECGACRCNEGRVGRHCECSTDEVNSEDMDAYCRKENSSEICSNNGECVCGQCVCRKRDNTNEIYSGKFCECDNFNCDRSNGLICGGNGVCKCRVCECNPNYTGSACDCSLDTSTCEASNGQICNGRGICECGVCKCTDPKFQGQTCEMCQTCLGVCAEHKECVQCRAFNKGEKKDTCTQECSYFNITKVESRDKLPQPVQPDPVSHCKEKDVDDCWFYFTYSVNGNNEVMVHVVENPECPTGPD
Description: Anti-Mouse IgG Fc biosensors were used to load each clone supernatant. Assay steps were as follows: Sensor Check (30s)-->Load Ab (700s)-->Quench (480s)-->Baseline(480s)-->Ab Assoc. (600s)-->Dissoc. (600s).

[2] = target: T1, purified recombinant human α5β1 …; assay: ELISA, inhibition of rh-α5β1-His binding to coated FN, purified hybridoma mAb
Method: Immulon4 HBX ELISA 96-well plates were coated with FN by incubation overnight at 4° C. with 2.5 μg/mL human FN (R&D Systems, Minneapolis, MN 55413, cat. no. 1918-FN) in 1×PBS (0.01M phosphate buffer and 0.154M NaCl, pH 7.4). Plates were then washed 3 times with Wash Buffer (1× Tris Buffered Saline containing 0.05% Tween20), blocked with 2% BSA in 1×TBS for 2 hours at room temperature (RT). […] Isotype control antibody (Control Ab; Ms IgG2a EMD Millipore Corp, Billerica, MA, cat. no. PP102) was used to normalize data across different assay runs. […] Following 1 hour at RT, the wells were washed 3 times, incubated with biotinylated Anti-6×His-Tag Ab (Invitrogen, Carlsbad, CA, cat. no. MAI-21315-BTIN) at 1:1000 in Standard Diluent for 1 hour, washed 3 times, incubated for 30 minutes with poly-HRP Streptavidin (Thermo Fisher Scientific, Waltham, MA, cat. no. N200), washed 4 times, incubated with TMB substrate (Thermo Fisher Scientific, Waltham, MA, cat. no. N301) for 2-5 minutes, followed by addition of ELISA Stop Solution (Invitrogen, Carlsbad, CA, cat. no. SS04). Absorbance 450 nm was measured. Data points were normalized to the isotype Control Ab values at each concentration and reported as % Absorbance 450 nm normalized to Control Ab. Non-linear regression analysis was used to fit curves (4-parameter) to the data using GraphPad Prism version 9.0.2 (GraphPad Software, LLC, San Diego, CA).

[3] = target: T2, recombinant human α5β1 integrin (rh-α5β1) (Homo sapiens, UniProt P05556+P08648); assay: Plate-based ELISA reactivity to rh-α5β1; type: binding; details: selected for further characterization among α5 specific hybridomas (28 selected)
T2 construct: purchased R&D Systems 3230-A5
T2 sequence (P08648 42-894 limits assumed): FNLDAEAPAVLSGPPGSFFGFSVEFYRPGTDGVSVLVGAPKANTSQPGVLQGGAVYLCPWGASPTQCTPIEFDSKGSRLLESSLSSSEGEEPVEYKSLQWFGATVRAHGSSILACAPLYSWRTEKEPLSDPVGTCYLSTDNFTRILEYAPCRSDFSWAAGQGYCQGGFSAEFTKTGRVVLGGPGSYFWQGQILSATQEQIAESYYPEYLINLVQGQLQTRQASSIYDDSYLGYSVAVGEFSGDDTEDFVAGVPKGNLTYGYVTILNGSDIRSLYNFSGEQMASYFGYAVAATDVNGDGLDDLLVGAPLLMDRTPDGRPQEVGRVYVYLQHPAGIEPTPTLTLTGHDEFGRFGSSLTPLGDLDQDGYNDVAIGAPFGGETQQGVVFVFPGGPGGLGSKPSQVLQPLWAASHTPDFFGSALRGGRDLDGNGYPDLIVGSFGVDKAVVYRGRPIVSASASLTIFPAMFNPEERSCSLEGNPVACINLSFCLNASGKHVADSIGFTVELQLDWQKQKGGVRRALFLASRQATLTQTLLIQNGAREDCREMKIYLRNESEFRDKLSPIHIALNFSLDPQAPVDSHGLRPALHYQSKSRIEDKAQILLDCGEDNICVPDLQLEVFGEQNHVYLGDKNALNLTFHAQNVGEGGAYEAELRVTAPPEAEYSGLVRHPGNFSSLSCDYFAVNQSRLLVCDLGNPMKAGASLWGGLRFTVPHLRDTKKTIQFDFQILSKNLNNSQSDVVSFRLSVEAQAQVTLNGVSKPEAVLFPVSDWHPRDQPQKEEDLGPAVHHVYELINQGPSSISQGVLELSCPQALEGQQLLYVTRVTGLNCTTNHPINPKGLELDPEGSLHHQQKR
T2 sequence (P08648 895-995 limits assumed): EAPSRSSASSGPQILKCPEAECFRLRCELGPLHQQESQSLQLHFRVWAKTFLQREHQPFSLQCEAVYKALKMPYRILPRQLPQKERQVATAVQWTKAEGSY
T2 sequence (P05556 21-728 limits assumed): as the sequence (P05556 21-728 limits assumed, form in doubt, chain 2 of 2) above
Method: (§1) The 249 positive hybridoma supernatants selected as described in Example 1 were screened for reactivity to rh-α5β1 in a plate-based ELISA. Immulon4 HBX ELISA 96-well plates (Thermo Fisher Scientific, Waltham, MA, cat. no. 3855) were coated with rh-α5β1 (R&D Systems, Minneapolis, MN 55413, cat. no. 3230-A5), at 1 μg/mL in PBS supplemented with 0.5 mM MgCl2, MnCl2 and CaCl2 and incubated overnight at 4° C. Plates were washed 3 times with Wash Buffer (1× Tris Buffered Saline containing 0.05% Tween20), blocked with 2% BSA in 1×TBS (made from 10× Thermo Scientific Blocker BSA (10×) in TBS; Thermo Fisher Scientific, Waltham, MA, cat. no. 37520) for 2 hours at room temperature (RT) then incubated with hybridoma supernatants diluted 1:10 with Standard Diluent (2% BSA, 1×TBS, 0.05% Tween20). Following a 1 hour incubation at RT, wells were washed 3 times, incubated with biotinylated goat anti-mouse secondary antibody at 1:8000 dilution (Invitrogen, Carlsbad, CA, cat. no. 62-6540) for 1 hour, washed 3 times, then incubated for 30 minutes with poly-HRP Streptavidin (Thermo Fisher Scientific, Waltham, MA, cat. no. N200), washed 4 times, incubated with TMB (Thermo Fisher Scientific, Waltham, MA, cat. no. N301) for 5-10 minutes, followed by addition of ELISA Stop Solution (Invitrogen, Carlsbad, CA, cat. no. SS04). Absorbance 450 nm was measured.

rh-α5β1 = rh-α5β1 (Homo sapiens, UniProt P05556+P08648); assay: Competition binding studies by Biolayer Interferometry (epitope groups); details: for Response (nm) / % Response: secondary mAb pre-mixed with 20 nM rh-α5β1; for % Response: relative to antigen alone
Sequence of rh-α5β1 (P08648 42-894 limits assumed): as the sequence (P08648 42-894 limits assumed) above
Sequence of rh-α5β1 (P08648 895-995 limits assumed): as the sequence (P08648 895-995 limits assumed) above
Sequence of rh-α5β1 (P05556 21-728 limits assumed): as the sequence (P05556 21-728 limits assumed, form in doubt, chain 2 of 2) above
Method: Epitope analysis via competition binding studies was performed using Biolayer Interferometry (BLI) on the 6 antibodies selected as described in Example 5. The anti-α5β1 FN blocking antibodies A2-7A05, C-14D12 and A-15B08 were immobilized on sensors and incubated with each of the other antibodies that had been preincubated with rh-α5β1, to determine whether this antibody-antigen association prevents or allows binding to the antibody on the sensor. The magnitude of observed binding (response) was compared to binding of antigen alone under the same conditions. If the overall response was greater than 120% of antigen binding alone, then the antibodies can pair with each other. If response was less than 80% of response of antigen binding alone, then the antibodies block each other. The protocol was as follows: preincubate the panel of antibodies with antigen (1 hr). Equilibrate the sensor (30 seconds (s))-->Load lead Ab on the sensor (700s)--->Quench (480s)--->Read baseline (480s)-->measure preincubated Ab+Ag association with loaded sensor (600s).

[4] = target: T3, recombinant mouse α5β1 (rm-α5β1) (Mus musculus, UniProt P09055+P11688); assay: Plate-based ELISA cross-reactivity to rm-α5β1; type: binding; details: hybridoma supernatant diluted 1:10; plate coated with rm-α5β1
T3 construct: purchased R&D Systems 7728-A5
T3 sequence (P11688 45-898 limits assumed): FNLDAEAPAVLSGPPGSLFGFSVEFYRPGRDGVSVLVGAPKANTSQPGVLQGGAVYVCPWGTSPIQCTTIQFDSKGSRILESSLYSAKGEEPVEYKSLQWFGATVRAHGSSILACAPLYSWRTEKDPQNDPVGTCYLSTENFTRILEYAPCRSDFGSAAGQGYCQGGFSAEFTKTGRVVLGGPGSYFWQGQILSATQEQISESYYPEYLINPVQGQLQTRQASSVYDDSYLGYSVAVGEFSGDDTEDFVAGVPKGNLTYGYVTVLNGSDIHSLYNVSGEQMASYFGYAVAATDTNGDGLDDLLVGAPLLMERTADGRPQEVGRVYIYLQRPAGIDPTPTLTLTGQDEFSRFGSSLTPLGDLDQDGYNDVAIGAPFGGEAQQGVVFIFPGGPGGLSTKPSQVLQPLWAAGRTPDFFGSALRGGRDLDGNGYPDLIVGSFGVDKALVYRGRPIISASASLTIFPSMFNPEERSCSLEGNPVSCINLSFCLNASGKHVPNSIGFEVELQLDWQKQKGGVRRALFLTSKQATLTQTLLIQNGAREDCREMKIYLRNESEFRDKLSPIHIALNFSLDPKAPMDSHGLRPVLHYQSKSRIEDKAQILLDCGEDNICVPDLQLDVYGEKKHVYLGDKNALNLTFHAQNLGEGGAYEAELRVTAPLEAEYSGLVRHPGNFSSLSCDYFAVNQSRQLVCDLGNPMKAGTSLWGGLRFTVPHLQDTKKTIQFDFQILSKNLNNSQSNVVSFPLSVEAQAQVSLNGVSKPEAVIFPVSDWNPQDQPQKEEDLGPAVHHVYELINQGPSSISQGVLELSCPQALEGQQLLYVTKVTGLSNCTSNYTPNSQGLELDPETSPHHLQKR
T3 sequence (P11688 899-999 limits assumed): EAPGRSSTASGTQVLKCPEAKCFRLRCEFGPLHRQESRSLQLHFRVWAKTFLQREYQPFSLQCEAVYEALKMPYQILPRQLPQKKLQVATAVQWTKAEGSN
T3 sequence (P09055 21-728 limits assumed): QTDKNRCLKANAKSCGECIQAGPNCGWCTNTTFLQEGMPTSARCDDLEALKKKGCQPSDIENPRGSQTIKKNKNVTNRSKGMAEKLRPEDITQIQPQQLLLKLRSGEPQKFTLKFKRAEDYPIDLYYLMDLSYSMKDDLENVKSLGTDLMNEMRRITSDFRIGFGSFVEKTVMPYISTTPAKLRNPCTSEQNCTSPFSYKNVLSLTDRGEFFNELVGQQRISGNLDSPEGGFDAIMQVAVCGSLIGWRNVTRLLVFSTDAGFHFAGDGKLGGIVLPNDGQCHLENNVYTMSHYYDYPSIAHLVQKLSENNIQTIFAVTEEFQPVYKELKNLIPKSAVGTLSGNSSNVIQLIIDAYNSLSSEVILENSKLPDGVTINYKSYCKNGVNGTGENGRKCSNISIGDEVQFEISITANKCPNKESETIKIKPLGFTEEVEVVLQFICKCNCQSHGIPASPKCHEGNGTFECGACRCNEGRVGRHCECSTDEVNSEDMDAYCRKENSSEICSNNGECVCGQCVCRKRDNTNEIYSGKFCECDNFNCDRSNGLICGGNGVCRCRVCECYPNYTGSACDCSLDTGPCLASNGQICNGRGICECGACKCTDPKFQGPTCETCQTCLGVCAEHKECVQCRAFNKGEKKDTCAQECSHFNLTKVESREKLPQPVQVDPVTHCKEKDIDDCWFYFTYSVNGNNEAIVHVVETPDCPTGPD
Method: as §1
In addition, hybridomas were tested for cross-reactivity to recombinant mouse α5β1 (rm-α5β1; R&D Systems, Minneapolis, MN 55413; cat. no. 7728-A5) using the same protocol as above except that the plates were coated with rm-α5β1.

[5] = target: T4, recombinant human α5β1 integrin (rh-α5β1; R&D Systems, cat. no. 3230-A5) (human, UniProt P08648 42-995; P05556 21-728); assay: ELISA, coated rh-α5β1, supernatant 1:10
T4 construct: bought recombinant heterodimer
T4 sequence (P08648 42-995 limits assumed, form in doubt, chain 1 of 2): as the sequence (P08648 42-995 limits assumed, form in doubt, chain 1 of 2) above
T4 sequence (P05556 21-728 limits assumed, form in doubt, chain 2 of 2): as the sequence (P05556 21-728 limits assumed, form in doubt, chain 2 of 2) above
Method: Plates were washed 3 times with Wash Buffer (1× Tris Buffered Saline containing 0.05% Tween20), blocked with 2% BSA in 1×TBS (made from 10× Thermo Scientific Blocker BSA (10×) in TBS; Thermo Fisher Scientific, Waltham, MA, cat. no. 37520) for 2 hours at room temperature (RT) then incubated with hybridoma supernatants diluted 1:10 with Standard Diluent (2% BSA, 1×TBS, 0.05% Tween20). […] Absorbance 450 nm was measured.

| Molecule | Kd [1] | koff [1] | kon [1] | % Max Inhibition [2] | also measured |
| --- | --- | --- | --- | --- | --- |
| B1 | 1.31 nM | 0.000431 s⁻¹ | 328000 M⁻¹ s⁻¹ | 96% |  |
| B2 |  |  |  |  | Selected Human α5 Specific [3]: Yes; binding of rh-α5β1 complexed with antibody to A2-7A05 on the sensor (rh-α5β1; antibody preincubated with rh-α5β1, A2-7A05 immobilized on sensor): able to bind; Response (nm) (rh-α5β1; immobilized mAb A2-7A05): 0.17 nm; % Response (rh-α5β1; immobilized mAb A2-7A05): 448.38%; Response (nm) (rh-α5β1; immobilized mAb A-15B08): 0.22 nm; % Response (rh-α5β1; immobilized mAb A-15B08): 106.82%; Response (nm) (rh-α5β1; immobilized mAb C-14D12): 0.24 nm; % Response (rh-α5β1; immobilized mAb C-14D12): 106.12%; epitope group (rh-α5β1; two epitope groups among 6 antibodies): second group |
| B3 |  |  |  |  | Absorbance 450 nm Mouse α5β1 [4]: 0.6708 |
| B4 | 0.379 nM | 9.94e-05 s⁻¹ | 263000 M⁻¹ s⁻¹ | 96% |  |
| B5 | 4.74 nM | 0.00137 s⁻¹ | 289000 M⁻¹ s⁻¹ | 93% | Absorbance 450 nm [5]: 2.03 |
